Assay results: patent publication US20070192883A1

How the values were obtained:
[1] = biological target: TAT-028 protein on the surface of human tumor cell lines (NCI-H460, HEK293, HepG2) (human) (UniProt P80723); assay: flow cytometry on HepG2 cells; secondary antibody only, background control
[2] = biological target: TAT-028 protein on the surface of human tumor cell lines (NCI-H460, HEK293, HepG2) (human) (UniProt P80723); assay: flow cytometry on HEK293 cells; secondary antibody only, background control
[3] = biological target: TAT-028 protein on the surface of human tumor cell lines (NCI-H460, HEK293, HepG2) (human) (UniProt P80723); assay: flow cytometry on NCI-H460 cells; secondary antibody only, background control

Sequence of UniProt P80723 (P80723 2-227 limits assumed): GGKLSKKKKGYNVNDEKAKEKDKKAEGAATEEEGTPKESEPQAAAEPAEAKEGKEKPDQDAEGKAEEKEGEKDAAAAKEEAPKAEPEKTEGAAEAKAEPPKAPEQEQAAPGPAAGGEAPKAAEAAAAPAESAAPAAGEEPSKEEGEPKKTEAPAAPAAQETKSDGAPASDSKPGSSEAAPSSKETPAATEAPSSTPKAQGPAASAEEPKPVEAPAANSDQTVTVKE

geometric mean fluorescence (geometric mean fluorescence units) [1]: 178
geometric mean fluorescence (geometric mean fluorescence units) [2]: 124
geometric mean fluorescence (geometric mean fluorescence units) [3]: 37
Substance: PE-conjugated anti-mouse IgG (antibody)
